Measured values as given in patent US20170295781A1 (AGROSAVFE N V, published 2017).
Numbering of substitutions follows the chain as printed.

Columns and labels:
[1] = target: potato lectin (Sigma) (potato) (UniProt Q9S8M0); experiment: ELISA-like assay, Uvitex microcapsules on wells coated with 5 ug/well potato lectin, surface coverage 4%
[2] = target: potato lectin (Sigma) (potato) (UniProt Q9S8M0); experiment: ELISA-like assay, Uvitex microcapsules on wells coated with 5 ug/well potato lectin, surface coverage 100%
[3] = target: potato lectin (Sigma) (potato) (UniProt Q9S8M0); experiment: ELISA-like assay, lambda-cyhalothrin microcapsules on potato lectin-coated wells, surface coverage 4%
[4] = target: potato lectin (Sigma) (potato) (UniProt Q9S8M0); experiment: ELISA-like assay, Uvitex OB microcapsules on potato lectin-coated wells, surface coverage 20%
[5] = target: potato lectin (Sigma) (potato) (UniProt Q9S8M0); experiment: ELISA-like assay, Uvitex OB microcapsules on potato lectin-coated wells, surface coverage 4%
[6] = target: potato lectin (Sigma) (potato) (UniProt Q9S8M0); experiment: ELISA-like assay, Uvitex microcapsules on wells coated with 5 ug/well potato lectin, surface coverage 20%
[7] = target: potato lectin (Sigma) (potato) (UniProt Q9S8M0); experiment: ELISA-like assay, lambda-cyhalothrin microcapsules on potato lectin-coated wells, surface coverage 100%
[8] = target: potato lectin (Sigma) (potato) (UniProt Q9S8M0); experiment: ELISA-like assay, Uvitex OB microcapsules on potato lectin-coated wells, surface coverage 100%
[9] = target: potato lectin (Sigma) (potato) (UniProt Q9S8M0); experiment: ELISA-like assay, lambda-cyhalothrin microcapsules on potato lectin-coated wells, surface coverage 20%
potato lectin (Sigma) [10] = target: T1, potato lectin (Sigma) (potato, UniProt Q9S8M0 23-323); experiment: ELISA, potato lectin coated at 100 ug/ml, VHH at 3 ug/ml, anti-histidine detection
T1 construct: Bought glycoprotein coated on ELISA plates
T1 sequence (looked up): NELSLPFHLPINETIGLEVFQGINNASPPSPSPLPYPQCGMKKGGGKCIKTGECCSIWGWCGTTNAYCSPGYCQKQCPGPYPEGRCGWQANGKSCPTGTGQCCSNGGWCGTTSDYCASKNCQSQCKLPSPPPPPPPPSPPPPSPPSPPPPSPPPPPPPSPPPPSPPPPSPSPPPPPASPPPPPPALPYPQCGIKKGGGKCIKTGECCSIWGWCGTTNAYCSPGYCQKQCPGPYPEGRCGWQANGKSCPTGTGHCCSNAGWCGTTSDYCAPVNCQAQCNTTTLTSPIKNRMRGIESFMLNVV
Procedure: ELISA plates (Maxisorp, Nunc) coated with 100 μl per well 100 μg/ml potato lectin (Sigma) in PBS were coated at 4° C. overnight and coating was continued at room temperature for 1 hour on the next day. Plates were washed three times with PBS/0.05%-TWEEN®-20 and blocked with 5% skimmed milk in PBS for 1 hour. VHH (3 μg/ml) were transferred to the potato lectin-coated plates and VHH antibody fragments were allowed to bind for 1 hour at room temperature. Bound VHH were detected with sequential incubations with monoclonal mouse anti-histidine antibodies (Abd Serotec) and rabbit anti-mouse IgG whole molecule antibodies conjugated with alkaline phosphatase (RaM/AP) (Sigma) in 1% MPBS/0.05%-TWEEN®-20. Unbound antibodies were removed by washing three times with PBS/0.05%-TWEEN®-20 after each antibody incubation. The plates were washed an additional two times with PBS and 100 μl pNPP disodium hexahydrate substrate (Sigma) was added to each well and the absorbance at 405 nm was measured (see Table 2).

unrelated antigen [11] = experiment: ELISA-like assay, Uvitex microcapsules on wells coated with unrelated antigen, surface coverage 20%
unrelated antigen [12] = experiment: ELISA-like assay, Uvitex microcapsules on wells coated with unrelated antigen, surface coverage 4%
potato lectin (Sigma) [13] = target: T1, potato lectin (Sigma); experiment: ELISA-like assay, Uvitex microcapsules on potato lectin-coated wells, 25-fold less microcapsules
Procedure: An ELISA-like assay was performed using high bind half area microplates (Greiner Bio-One) coated with 5 μg/well potato lectin. Control wells included blank wells or wells coated with unrelated antigens. Plates were washed three times with PBS with 0.05%-TWEEN®-20 and blocked with 5% skimmed milk in PBS for 1 to 2 hours. VHH-coupled Uvitex-containing microcapsules were diluted to appropriate densities in 1% skimmed milk in PBS with 0.05%-TWEEN®-20. Five-fold serial dilution series were prepared and allowed to bind to the surface to compare binding of microcapsules coupled with monovalent or bivalent VHH. Microcapsules were added to the antigen-coated or control wells and allowed to bind for 1 hour. Unbound microcapsules were removed by washing five times with PBS with 0.05%-TWEEN®-20. The bottoms of ELISA plate wells were analyzed for bound microcapsules on a macrozoom microscope system (Nikon). Microcapsules were counted using Volocity image analysis software (Perkin Elmer). A DAPI filter was used to visualize Uvitex microcapsules. […] The surface area of microcapsules with coupled bivalent VHH was 15-fold above the surface area of blank microcapsules applied at this microcapsule density while the surface area of microcapsules with monovalent VHH was only six-fold above the surface area of blank microcapsules applied at this microcapsule density. […]

unrelated antigen [14] = experiment: ELISA-like assay, Uvitex microcapsules on wells coated with unrelated antigen, surface coverage 100%

Molecule: unrelated control VHH coupled to microcapsules
- surface area of bound microcapsules (area (unit not given)) [1]: 19.2
- surface area of bound microcapsules (area (unit not given)) [2]: 142
- counts of bound microcapsules [3]: 348 counts
- area of bound microcapsules (area (unit not given)) [4]: 35.4
- area of bound microcapsules (area (unit not given)) [5]: 7.53
- surface area of bound microcapsules (area (unit not given)) [6]: 43.5
- counts of bound microcapsules [7]: 828 counts
- area of bound microcapsules (area (unit not given)) [8]: 16.7
- counts of bound microcapsules [9]: 709 counts

B1: VHH 5D4 (VHH)
VHH: QVQLQESGGGLVQPGGSLRLSCAASGFDMRRFGIGWFRQVAGKEREGVSCSNVHDGTTYYTNDVKGRFTIVRDNTKNMLYLQMNKLRPEDTAVYSCATTDCEATAWGTYRGYFGQGTQVTVSS
notes: not shown: hexahistidine tag
- absorbance at 405 nm (potato lectin (Sigma) [10]): 4 A405

B2: VHH 7D2 (VHH)
VHH: QVQLQESGGGLVQPGRSLKVACAAAGFSLRYYGIGWFRQAPGKEREAVSCTSANDGSTYYRDSVRGRFTISRDDGKNTVYLQMNRLKPEDTAVYYCATTDCDATSWGTWINYYGQGTQVTVSS
notes: not shown: hexahistidine tag
- absorbance at 405 nm (potato lectin (Sigma) [10]): 4 A405

B3: VHH 5C4 (VHH)
VHH: QVQLQESGGGLVQPGGSLRLSCAASGFSLRYFGIGWFRQVAGKEREPVSCSNVRDGNTYYADSVKGRFTISRDNVRNTLYLQMNSLKPEDTAVYSCATTDCEATTWGTYRGYFGQGTQVTVSS
notes: not shown: hexahistidine tag
- absorbance at 405 nm (potato lectin (Sigma) [10]): 4 A405

B4: VHH 5G5 (VHH)
VHH: B3 VHH with V40A, P47G, V48I, T78M, S85N, E89D
notes: not shown: hexahistidine tag
- absorbance at 405 nm (potato lectin (Sigma) [10]): 4 A405

B5: Bivalent VHH 3E6 coupled to polyurea microcapsules (VHH)
chain: QVQLQESGGGLVQPGGTLSLSCAASGFNVRWYGMGWFRQAPGKEREGVACISALQETTAYADSVKGRFTLSRDNPKNTLSLQMNNLQPEDTGVYYCATTDCDDSSRMTYTSYLGQGTQVTVSSGGGGSGGGSQVQLQESGGGLVQPGGTLSLSCAASGFNVRWYGMGWFRQAPGKEREGVACISALQETTAYADSVKGRFTLSRDNPKNTLSLQMNNLQPEDTGVYYCATTDCDDSSRMTYTSYLGQGTQVTVSSAAAEQKLISEEDLNGAAHHHHHH
modifications: coupled by carbodiimide chemistry to the microcapsule shell
- surface area of bound microcapsules (area (unit not given)) (unrelated antigen [11]): 22.1
- surface area of bound microcapsules (area (unit not given)) (unrelated antigen [12]): 15
- fold surface area above blank microcapsules (potato lectin (Sigma) [13]): 15 fold
- surface area of bound microcapsules (area (unit not given)) (unrelated antigen [14]): 45.7

B6: VHH 3E6 (VHH)
VHH: QVQLQESGGGLVQPGGTLSLSCAASGFNVRWYGMGWFRQAPGKEREGVACISALQETTAYADSVKGRFTLSRDNPKNTLSLQMNNLQPEDTGVYYCATTDCDDSSRMTYTSYLGQGTQVTVSS
notes: Purified hexahistidine-tagged VHH from E. coli periplasm; not shown: hexahistidine tag
- absorbance at 405 nm (potato lectin (Sigma) [10]): 4 A405

B7: VHH 3E6 coupled to polyurea microcapsules (VHH)
VHH: B6 VHH
modifications: coupled by carbodiimide (EDC) chemistry to carboxylic acid groups on the microcapsule shell
notes: also called Monovalent VHH 3E6; monovalent VHH; not shown: hexahistidine tag
- fold surface area above blank microcapsules (potato lectin (Sigma) [13]): 6 fold
